In article PMC6086839, “Elongator mutation in mice induces neurodegeneration and ataxia-like behavior” (Nature Communications, 2018):

T1: yeast Elp4 residues 66-426 (yElp4_(66-426)) (S. cerevisiae, UniProt Q02884 66-426)
T1 construct: source: purified complex
T1 sequence (looked up): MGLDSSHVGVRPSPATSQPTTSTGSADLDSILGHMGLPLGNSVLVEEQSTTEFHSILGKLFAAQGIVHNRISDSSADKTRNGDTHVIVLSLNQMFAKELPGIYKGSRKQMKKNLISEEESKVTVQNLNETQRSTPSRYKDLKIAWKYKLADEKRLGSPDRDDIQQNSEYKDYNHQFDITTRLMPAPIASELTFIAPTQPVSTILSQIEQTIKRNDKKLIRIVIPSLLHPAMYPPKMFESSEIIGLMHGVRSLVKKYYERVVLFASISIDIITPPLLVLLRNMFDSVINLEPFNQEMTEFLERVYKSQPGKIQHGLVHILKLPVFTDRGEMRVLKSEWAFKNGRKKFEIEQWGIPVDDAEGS

B1: yeast Elongator complex subunit 6 (yElp6) (natural protein, S. cerevisiae)
chain: MGSVQRQDLVLFSDQSVLPAHFFQDSNSHNLFFITHQSCTQPLWMINALVETHVLGSPSSLNESSSSMLPSSTRSHAVLASFIHEQNYFTNSLNKLKIPSNNYNVLDFLSDFIVNNIHNKPRDKILSDVLAKFSAAIQNNPTDTIVIIEQPELLLSLVSGLTCSELNNKFITPLLRQCKVLIIVSNSDIFNIDEYDASVHSSNLQNFYKSSFIKSMINLNLNPLKTGFAKDVTGSLHVCRGGAPIATSNTSLHVVENEYLYLNEKESTKLFYR
notes: Elp6, S. cerevisiae, Q04868; printed without limits (yElp456); source: purified Elp456 complex from yeast subunits

Columns and labels:
[1] = target: T1, yeast Elp4 residues 66-426 …; test: co-purification (NiNTA affinity, then SEC); subunits co-expressed in E. coli; truncated complexes purified as complexes and then used for Thermofluor; settings: both partners purified
[2] = target: B1; test: as above; settings: both partners purified

Row | binding result [1] | binding result [2] | Binder
1 | binds | – | B1
2 | binds | binds | yeast Elp5 residues 1-270 (yElp5_(1-270)) (domain or fragment, S. cerevisiae, UniProt P38874 1-270, looked up, Elp5, yeast, residues 1-270; source: purified complex) MASSSHNPVILLKRILSLTESSPFILCLDSIAQTSYKLIQEFVHQSKSKGNEYPIVYISFETVNKPSYCTQFIDATQMDFVHLVKQIISYLPAATATQAKKHMVIIDSLNYISTEYITRFLSEIASPHCTMVATYHKDIKDENRTVIPDWNNNYPDKLTLLQFMATTIVDIDVVLTGTLDTEEVSELLNEFRIPRGLNNDIFQLRLVNKRKSGRSLEYDFIVNSNTHEYELLSTTKQEEESSSNGLETPEMLQGLTTFNLGTSNKQKLAK
